Patent publication US20190321455A1 (KOREA RESEARCH INSTITUTE OF BIOSCIENCE AND BIOTECHNOLOGY, published 2019)

What was measured:
[1] = target: T1, EPRS, endogenous protein of U937 cells (human, UniProt P07814 1-1512, phospho-Ser990 induced by PR8 infection; phospho-Ser886 also detected); assay: endogenous co-IP with anti-EPRS antibody from PR8-infected U937 cells, anti-GAPDH immunoblot
T1 construct: Endogenous protein immunoprecipitated with anti-EPRS antibody; also called glutamyl-prolyl-tRNA synthetase

[2] = target: T2, Strep-EPRS (Strep-tagged full-length glutamyl-prolyl-tRNA synthetase, wild type) (Homo sapiens (Human), UniProt P07814 1-1512); assay: Strep-EPRS complexes from PR8-infected 293T cells, mass spectrometry
T2 construct: Expressed in HEK293T cells and pulled down with Strep-Tactin; Mass spectrometry found phospho-Ser886, and phospho-Ser990 after PR8 infection; also called Strep-EPRS WT; not shown: Strep tag

[3] = target: T1, EPRS, endogenous protein of U937 cells; assay: endogenous co-IP with anti-EPRS antibody, PR8-infected U937 cells
[4] = target: T2, Strep-EPRS (Strep-tagged full-length …); assay: Strep precipitation of 293T lysates expressing Strep-EPRS and forms of GST-PCBP2, anti-GST immunoblot
[5] = target: T3, MAVS-FLAG (mitochondrial antiviral-signaling protein expressed in 293T cells) (UniProt Q7Z434 1-540); assay: anti-FLAG co-IP of 293T lysates expressing MAVS and forms of GST-PCBP2, anti-GST immunoblot
T3 construct: also called exogenous MAVS; not shown: FLAG tag
T3 sequence (Q7Z434 whole entry): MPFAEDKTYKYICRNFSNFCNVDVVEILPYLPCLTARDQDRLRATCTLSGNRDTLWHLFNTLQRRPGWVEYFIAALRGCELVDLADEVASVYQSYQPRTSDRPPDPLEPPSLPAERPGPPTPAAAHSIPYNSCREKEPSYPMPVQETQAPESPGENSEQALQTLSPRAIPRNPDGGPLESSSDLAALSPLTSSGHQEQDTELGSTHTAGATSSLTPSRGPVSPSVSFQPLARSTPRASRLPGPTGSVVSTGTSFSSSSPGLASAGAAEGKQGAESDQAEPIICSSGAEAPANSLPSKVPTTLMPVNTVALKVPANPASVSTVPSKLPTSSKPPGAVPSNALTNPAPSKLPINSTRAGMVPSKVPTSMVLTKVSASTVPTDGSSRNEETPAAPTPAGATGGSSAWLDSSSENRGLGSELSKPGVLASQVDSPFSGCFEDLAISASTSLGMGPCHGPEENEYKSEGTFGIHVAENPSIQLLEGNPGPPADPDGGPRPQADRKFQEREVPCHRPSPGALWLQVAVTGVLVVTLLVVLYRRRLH

[6] = target: T4, MAVS, endogenous protein of RAW264.7 cells (UniProt Q8VCF0 1-503); assay: endogenous immunoprecipitation with anti-PCBP2 antibody, PR8-infected RAW264.7 cells
T4 sequence (looked up): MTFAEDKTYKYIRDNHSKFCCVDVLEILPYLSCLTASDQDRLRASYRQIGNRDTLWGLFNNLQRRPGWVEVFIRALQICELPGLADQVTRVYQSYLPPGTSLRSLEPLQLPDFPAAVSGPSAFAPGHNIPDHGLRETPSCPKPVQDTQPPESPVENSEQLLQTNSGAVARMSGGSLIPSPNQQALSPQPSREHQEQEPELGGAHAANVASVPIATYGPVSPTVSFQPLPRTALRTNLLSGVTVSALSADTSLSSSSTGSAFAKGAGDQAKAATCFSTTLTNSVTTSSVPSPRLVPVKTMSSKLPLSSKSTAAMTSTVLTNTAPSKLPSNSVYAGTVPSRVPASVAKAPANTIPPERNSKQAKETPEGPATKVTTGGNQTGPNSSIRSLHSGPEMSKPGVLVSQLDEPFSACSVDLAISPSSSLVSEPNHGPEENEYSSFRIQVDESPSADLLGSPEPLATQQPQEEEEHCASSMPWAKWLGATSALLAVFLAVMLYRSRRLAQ

[7] = target: T5, EPRS, endogenous protein of RAW264.7 cells (UniProt Q8CGC7 1-1512, phospho-Ser990 induced by PR8 infection); assay: as above
T5 construct: Endogenous protein in cell lysates; The mouse origin is inferred from the cell line
T5 sequence (Q8CGC7 whole entry): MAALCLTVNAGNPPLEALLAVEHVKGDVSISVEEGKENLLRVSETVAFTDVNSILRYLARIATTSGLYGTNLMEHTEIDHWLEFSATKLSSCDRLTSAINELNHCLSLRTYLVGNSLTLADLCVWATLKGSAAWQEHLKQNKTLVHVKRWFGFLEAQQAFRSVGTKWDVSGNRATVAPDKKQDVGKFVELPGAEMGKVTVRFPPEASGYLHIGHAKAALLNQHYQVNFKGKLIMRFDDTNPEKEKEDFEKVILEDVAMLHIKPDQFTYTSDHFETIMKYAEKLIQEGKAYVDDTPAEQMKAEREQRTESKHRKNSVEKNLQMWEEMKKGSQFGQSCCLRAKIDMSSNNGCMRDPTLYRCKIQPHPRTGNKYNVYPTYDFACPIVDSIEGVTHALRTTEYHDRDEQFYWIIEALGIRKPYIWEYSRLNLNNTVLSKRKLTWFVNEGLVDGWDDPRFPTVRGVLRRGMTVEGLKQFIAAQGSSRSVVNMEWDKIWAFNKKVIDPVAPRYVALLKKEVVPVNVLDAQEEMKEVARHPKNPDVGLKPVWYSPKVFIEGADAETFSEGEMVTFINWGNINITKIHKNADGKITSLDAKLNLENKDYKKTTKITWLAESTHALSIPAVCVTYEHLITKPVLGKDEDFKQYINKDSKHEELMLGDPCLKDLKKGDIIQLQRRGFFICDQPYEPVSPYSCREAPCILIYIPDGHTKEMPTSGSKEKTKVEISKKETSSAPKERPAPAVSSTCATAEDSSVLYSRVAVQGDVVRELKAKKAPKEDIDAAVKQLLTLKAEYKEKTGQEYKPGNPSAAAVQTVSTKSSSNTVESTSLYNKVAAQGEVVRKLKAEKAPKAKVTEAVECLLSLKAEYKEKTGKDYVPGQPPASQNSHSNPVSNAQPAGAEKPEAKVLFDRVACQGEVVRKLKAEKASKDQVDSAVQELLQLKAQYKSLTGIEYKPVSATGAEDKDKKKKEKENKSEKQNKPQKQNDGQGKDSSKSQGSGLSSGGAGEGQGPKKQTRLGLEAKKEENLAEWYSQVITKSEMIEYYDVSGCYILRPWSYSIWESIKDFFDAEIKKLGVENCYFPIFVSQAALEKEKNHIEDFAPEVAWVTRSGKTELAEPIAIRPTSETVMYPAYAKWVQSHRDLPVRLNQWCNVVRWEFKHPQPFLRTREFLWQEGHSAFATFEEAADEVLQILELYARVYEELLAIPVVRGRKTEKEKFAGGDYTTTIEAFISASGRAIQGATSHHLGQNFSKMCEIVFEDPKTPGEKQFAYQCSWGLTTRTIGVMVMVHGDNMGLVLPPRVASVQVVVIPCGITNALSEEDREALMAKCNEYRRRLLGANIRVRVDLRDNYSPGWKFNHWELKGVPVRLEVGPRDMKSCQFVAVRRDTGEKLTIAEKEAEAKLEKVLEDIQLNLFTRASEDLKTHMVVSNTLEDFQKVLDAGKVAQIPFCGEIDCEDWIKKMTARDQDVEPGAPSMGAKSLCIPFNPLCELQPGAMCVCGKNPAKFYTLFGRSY

[8] = target: T6, Strep-tagged EPRS mono-phosphomimetic S990D (Homo sapiens (Human), UniProt P07814 1-1512); assay: Strep precipitation from 293T cells, immunoblot
T6 construct: Expressed in 293T cells; also called EPRS S990D; not shown: Strep tag

[9] = target: T7, His-tagged EPRS (aa 1-168; GST-like domain alone), purified from E. coli (Homo sapiens (Human), UniProt P07814 1-168); assay: in vitro His-tag (Ni-NTA) precipitation with purified proteins
T7 construct: not shown: hexahistidine tag
T7 sequence: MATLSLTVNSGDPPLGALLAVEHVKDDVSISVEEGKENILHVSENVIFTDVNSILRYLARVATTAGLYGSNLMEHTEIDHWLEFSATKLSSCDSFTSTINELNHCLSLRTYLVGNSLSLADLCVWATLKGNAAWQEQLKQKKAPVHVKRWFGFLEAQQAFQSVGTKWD

[10] = target: T8, His-tagged EPRS (aa 1-196), purified from E. coli (Homo sapiens (Human), UniProt P07814 1-196); assay: in vitro His-tag (Ni-NTA) precipitation with purified proteins, Coomassie
T8 construct: also called GST and L1 regions of EPRS; not shown: hexahistidine tag
T8 sequence: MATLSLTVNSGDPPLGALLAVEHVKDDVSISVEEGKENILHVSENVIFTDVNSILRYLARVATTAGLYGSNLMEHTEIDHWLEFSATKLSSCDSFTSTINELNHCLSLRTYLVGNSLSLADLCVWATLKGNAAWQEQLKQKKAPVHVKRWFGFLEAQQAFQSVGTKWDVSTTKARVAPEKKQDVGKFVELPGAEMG

B1: GAPDH (glyceraldehyde-3-phosphate dehydrogenase), endogenous protein of human cells (U937, 293T) (enzyme)
chain: not shown
binding result [1]: no binding
binding result [2]: no binding

B2: PCBP2, endogenous protein of human cells (293T, U937) (other, UniProt Q15366 1-365, looked up)
chain: MDTGVIEGGLNVTLTIRLLMHGKEVGSIIGKKGESVKKMREESGARINISEGNCPERIITLAGPTNAIFKAFAMIIDKLEEDISSSMTNSTAASRPPVTLRLVVPASQCGSLIGKGGCKIKEIRESTGAQVQVAGDMLPNSTERAITIAGIPQSIIECVKQICVVMLETLSQSPPKGVTIPYRPKPSSSPVIFAGGQDRYSTGSDSASFPHTTPSMCLNPDLEGPPLEAYTIQGQYAIPQPDLTKLHQLAMQQSHFPMTHGNTGFSGIESSSPEVKGYWGLDASAQTTSHELTIPNDLIGCIIGRQGAKINEIRQMSGAQIKIANPVEGSTDRQVTITGSAASISLAQYLINVRLSSETGGMGSS
notes: also called PBP2
binding result [3]: binds

B3: GST-PCBP2 N-terminal KH1 domain (aa 1-81), expressed in 293T cells (other, UniProt Q15366 1-81, looked up)
chain: MDTGVIEGGLNVTLTIRLLMHGKEVGSIIGKKGESVKKMREESGARINISEGNCPERIITLAGPTNAIFKAFAMIIDKLEE
notes: range 1-81; also called PCBP2 KH1; not shown: GST tag
binding result [4]: binds
binding result [5]: binds

B4: PCBP2, endogenous protein of RAW264.7 cells (other, UniProt Q61990 1-362, looked up)
chain: MDTGVIEGGLNVTLTIRLLMHGKEVGSIIGKKGESVKKMREESGARINISEGNCPERIITLAGPTNAIFKAFAMIIDKLEEDISSSMTNSTAASRPPVTLRLVVPASQCGSLIGKGGCKIKEIRESTGAQVQVAGDMLPNSTERAITIAGIPQSIIECVKQICVVMLESPPKGVTIPYRPKPSSSPVIFAGGQDRYSTGSDSASFPHTTPSMCLNPDLEGPPLEAYTIQGQYAIPQPDLTKLHQLAMQQSHFPMTHGNTGFSGIESSSPEVKGYWAGLDASAQTTSHELTIPNDLIGCIIGRQGAKINEIRQMSGAQIKIANPVEGSTDRQVTITGSAASISLAQYLINVRLSSETGGMGSS
notes: also called PBP2
binding result [6]: binds
binding result [7]: binds

B5: GST-PCBP2 linker region, expressed in 293T cells (other, UniProt Q15366 168-279, looked up)
chain: ETLSQSPPKGVTIPYRPKPSSSPVIFAGGQDRYSTGSDSASFPHTTPSMCLNPDLEGPPLEAYTIQGQYAIPQPDLTKLHQLAMQQSHFPMTHGNTGFSGIESSSPEVKGYW
notes: domain: linker region; not shown: GST tag
binding result [4]: no binding

B6: MRS (methionyl-tRNA synthetase), endogenous protein of 293T cells (enzyme, UniProt P56192 1-900, looked up)
chain: MRLFVSDGVPGCLPVLAAAGRARGRAEVLISTVGPEDCVVPFLTRPKVPVLQLDSGNYLFSTSAICRYFFLLSGWEQDDLTNQWLEWEATELQPALSAALYYLVVQGKKGEDVLGSVRRALTHIDHSLSRQNCPFLAGETESLADIVLWGALYPLLQDPAYLPEELSALHSWFQTLSTQEPCQRAAETVLKQQGVLALRPYLQKQPQPSPAEGRAVTNEPEEEELATLSEEEIAMAVTAWEKGLESLPPLRPQQNPVLPVAGERNVLITSALPYVNNVPHLGNIIGCVLSADVFARYSRLRQWNTLYLCGTDEYGTATETKALEEGLTPQEICDKYHIIHADIYRWFNISFDIFGRTTTPQQTKITQDIFQQLLKRGFVLQDTVEQLRCEHCARFLADRFVEGVCPFCGYEEARGDQCDKCGKLINAVELKKPQCKVCRSCPVVQSSQHLFLDLPKLEKRLEEWLGRTLPGSDWTPNAQFITRSWLRDGLKPRCITRDLKWGTPVPLEGFEDKVFYVWFDATIGYLSITANYTDQWERWWKNPEQVDLYQFMAKDNVPFHSLVFPCSALGAEDNYTLVSHLIATEYLNYEDGKFSKSRGVGVFGDMAQDTGIPADIWRFYLLYIRPEGQDSAFSWTDLLLKNNSELLNNLGNFINRAGMFVSKFFGGYVPEMVLTPDDQRLLAHVTLELQHYHQLLEKVRIRDALRSILTISRHGNQYIQVNEPWKRIKGSEADRQRAGTVTGLAVNIAALLSVMLQPYMPTVSATIQAQLQLPPPACSILLTNFLCTLPAGHQIGTVSPLFQKLENDQIESLRQRFGGGQAKTSPKPAVVETVTTAKPQQIQALMDEVTKQGNIVRELKAQKADKNEVAAEVAKLLDLKKQLAVAEGKPPEAPKGKKKK
notes: 293T cells are a human line
binding result [8]: no binding

B7: AIMP3 (ARS-interacting multifunctional protein 3), endogenous protein of human cells (U937, 293T) (other, UniProt O43324 2-174, looked up)
chain: AAAAELSLLEKSLGLSKGNKYSAQGERQIPVLQTNNGPSLTGLTTIAAHLVKQANKEYLLGSTAEEKAIVQQWLEYRVTQVDGHSSKNDIHTLLKDLNSYLEDKVYLTGYNFTLADILLYYGLHRFIVDLTVQEKEKYLNVSRWFCHIQHYPGIRQHLSSVVFIKNRLYTNSH
binding result [8]: no binding

B8: GST-fused PCBP2 KH1 (aa 11-82), purified from E. coli (other, UniProt Q15366 11-82, looked up)
chain: NVTLTIRLLMHGKEVGSIIGKKGESVKKMREESGARINISEGNCPERIITLAGPTNAIFKAFAMIIDKLEED
notes: range 11-82; also called PCBP2 KH1 (aa 11-82) domain; not shown: GST
binding result [9]: no binding
binding result [10]: binds
